In patent US20240358755A1 (IMMATICS BIOTECHNOLOGIES, published 2024):

The binders below were run against T1, HLA-A*03:01 (human) (assay: UV peptide exchange, anti-b2m ELISA; exchange yield grade).
T1 construct: Peptide-receptive MHC class I monomer in the UV-ligand exchange assay
Description: (§1) Candidate peptides for T cell based therapies according to the present invention were further tested for their MHC binding capacity (affinity). The individual peptide-MHC complexes were produced by UV-ligand exchange, where a UV-sensitive peptide is cleaved upon UV-irradiation and exchanged with the peptide of interest as analyzed. Only peptide candidates that can effectively bind and stabilize the peptide-receptive MHC molecules prevent dissociation of the MHC complexes. To determine the yield of the exchange reaction, an ELISA was performed based on the detection of the light chain (β2m) of stabilized MHC complexes. The assay was performed as generally described in Rodenko et al. (Rodenko et al., 2006).
(§2) 96 well MAXISorp plates (NUNC) were coated over night with 2 μg/ml streptavidin in PBS at room temperature, washed 4× and blocked for 1 h at 37° C. in 2% BSA containing blocking buffer. […] Peptide-MHC monomers of the UV-exchange reaction were diluted 100-fold in blocking buffer. Samples were incubated for 1 h at 37° C., washed four times, incubated with 2 μg/ml HRP conjugated anti-β2m for 1 h at 37° C., washed again and detected with TMB solution that is stopped with […]. Absorption was measured at 450 nm.
In the case of SVISVLTTPK, the peptide exchange yield is reported as ≥ 75%. In the case of ETYGTFVLR, the peptide exchange yield is reported as 50 to 75%. ALAQGANLK was tested, and the peptide exchange yield was 50 to 75%. With TVATQVATSK the peptide exchange yield was 50 to 75%. With MTFVPLLAR the peptide exchange yield was ≥ 75%. Work on RTLPLEGSPK yielded a peptide exchange yield of 50 to 75%. In the case of AVLGALLRH, the peptide exchange yield is reported as ≥ 75%. Binder IIVPSFYK has a peptide exchange yield of 50 to 75%. With KVLVDFLLK the peptide exchange yield was 50 to 75%. SVYMATTLK was tested, and the peptide exchange yield was ≥ 75%. Binder SMNSKALRWK has a peptide exchange yield of 50 to 75%. Binder IVFLLQQGEK has a peptide exchange yield of 50 to 75%. For AVFVNWEQTKK, the peptide exchange yield was ≥ 75%. KIMEILNLK was tested, and the peptide exchange yield was ≥ 75%. In the case of TVTSAIVNR, the peptide exchange yield is reported as 50 to 75%. With ASAIPAGAK the peptide exchange yield was 50 to 75%. Work on ILAASFQAR yielded a peptide exchange yield of 50 to 75%. For VIFLHQPPK, the peptide exchange yield was ≥ 75%. For LSGPVTFLR, the peptide exchange yield was 50 to 75%. For SLFGGLFTR, the peptide exchange yield was ≥ 75%. With MIFSGVFLR the peptide exchange yield was ≥ 75%. RLCPAAPTGK was tested, and the peptide exchange yield was ≥ 75%. Binder STQSSLLYLK has a peptide exchange yield of 50 to 75%. Binder ILQLITVNR has a peptide exchange yield of 50 to 75%. For MTYQQPFSNR, the peptide exchange yield was ≥ 75%. Work on KLLLLSSVK yielded a peptide exchange yield of 50 to 75%. AILVPQPPK showed a peptide exchange yield of 50 to 75%. In the case of VVRASSGLK, the peptide exchange yield is reported as 50 to 75%. With SLIPIVPFKS the peptide exchange yield was 20 to 50%. For AILLPQLPK, the peptide exchange yield was ≥ 75%. For TLLSFKTVLFK, the peptide exchange yield was ≥ 75%.

The binders below were run against T2, HLA-B*07:02 (human) in the same assay as above.
T2 construct: Peptide-receptive monomer in the UV-ligand exchange assay
Description: as §1, §2
Work on SPVETRSLL yielded a peptide exchange yield of 50 to 75%. For APQPRSLAA, the peptide exchange yield was ≥ 75%. Binder SPLPHLGPL has a peptide exchange yield of 50 to 75%. For SPVSASWIL, the peptide exchange yield was ≥ 75%. For AVDLGVLEL, the peptide exchange yield was 50 to 75%. With MPANFETIGF the peptide exchange yield was ≥ 75%. Binder LPTRSLPAF has a peptide exchange yield of 50 to 75%. For RPLILIRI, the peptide exchange yield was 20 to 50%. With YPDVPIGQL the peptide exchange yield was 50 to 75%. For TPSHSTPSF, the peptide exchange yield was 50 to 75%. LPHPVNSGL gave a peptide exchange yield of 50 to 75%. SPSSPLLLLA showed a peptide exchange yield of 50 to 75%. For SPIGLSLIL, the peptide exchange yield was ≥ 75%. For HPRESLNMLVAF, the peptide exchange yield was ≥ 75%. In the case of SPAPSLARFLSL, the peptide exchange yield is reported as ≥ 75%. For RPWLSSPTGL, the peptide exchange yield was ≥ 75%. In the case of MPKLFLTAC, the peptide exchange yield is reported as ≥ 75%. With APSLARFLSL the peptide exchange yield was ≥ 75%. With RPIWDVRSA the peptide exchange yield was ≥ 75%. For VPHHLLSSV, the peptide exchange yield was ≥ 75%. Binder APGPRSQGL has a peptide exchange yield of 50 to 75%. For SPSSNSREL, the peptide exchange yield was 50 to 75%. Work on NPELLVILL yielded a peptide exchange yield of 50 to 75%. For IPISIFKMA, the peptide exchange yield was 50 to 75%. With MPCTTILRI the peptide exchange yield was ≥ 75%. In the case of MPIQVLKGL, the peptide exchange yield is reported as ≥ 75%. In the case of QPAPQPLL, the peptide exchange yield is reported as 50 to 75%. With MPWVLMSPF the peptide exchange yield was ≥ 75%. For SLRVPSPAL, the peptide exchange yield was 50 to 75%. In the case of APLRAGWAA, the peptide exchange yield is reported as ≥ 75%. LPVHGPLPLLL was tested, and the peptide exchange yield was 50 to 75%. In the case of RPQGVGPAA, the peptide exchange yield is reported as ≥ 75%. With MPFLKVPPL the peptide exchange yield was ≥ 75%. RPSLPCRSF gave a peptide exchange yield of 50 to 75%. Work on VVHGGMSIF yielded a peptide exchange yield of 20 to 50%. In the case of MPAFLSRASAL, the peptide exchange yield is reported as ≥ 75%. In the case of APLLPGPAA, the peptide exchange yield is reported as ≥ 75%.
